For experiment [1], the target named is T1, B7H3-hFc (human, UniProt Q5ZPR3 29-456).
T1 construct: also called recombinant B7H3-hFc; B7H3 ECD fused with human IgG1 Fc; not shown: human IgG1 Fc
T1 sequence: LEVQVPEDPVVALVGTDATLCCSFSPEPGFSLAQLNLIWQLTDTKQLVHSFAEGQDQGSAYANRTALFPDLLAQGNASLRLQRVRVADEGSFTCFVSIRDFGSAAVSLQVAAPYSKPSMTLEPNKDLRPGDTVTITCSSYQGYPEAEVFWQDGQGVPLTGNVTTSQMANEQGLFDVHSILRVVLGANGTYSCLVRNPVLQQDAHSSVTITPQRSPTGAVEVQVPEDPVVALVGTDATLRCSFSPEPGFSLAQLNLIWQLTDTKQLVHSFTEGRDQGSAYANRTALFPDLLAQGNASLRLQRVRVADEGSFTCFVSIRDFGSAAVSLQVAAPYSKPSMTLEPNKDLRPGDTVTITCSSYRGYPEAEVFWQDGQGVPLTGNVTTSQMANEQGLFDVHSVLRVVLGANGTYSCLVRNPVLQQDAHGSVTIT
Kind of experiment: ELISA, B7H3-hFc coated, VH-His-FLAG detected with anti-FLAG-HRP. The source says: FIGS. 4A-4C: Binding properties of the B7H3 binders. (FIG. 4A) SDS-PAGE analysis of the purified A1 and B1 binders (VH-His-FLAG fusion) from E. coli. Two micrograms of purified B7H3-hFc, non-reduced (Non.) or reduced (Red.) by β-mercaptoethanol, were separated on an 8% SDS-PAGE gel. Protein bands were visualized by Coomassie blue R-250 staining. (FIG. 4B) Protein binding affinity measurement by ELISA. Five micrograms of B7H3-hFc were coated on the ELISA plate, and different concentrations of domain antibodies were incubated with the plate, and binding was detected by HRP conjugated anti-FLAG mouse monoclonal antibody M2. The binding curves were plotted using the software GraphPad Prism and the calculated EC50 values were determined by the software's algorithm of hyperbola one site binding. (FIG. 4C) Cell binding determination by flow cytometry. Ten microgram per mL domain antibody was co-incubated with one million cells. Antibody binding was visualized by APC conjugated anti-FLAG monoclonal antibody. The curves labelled “1” represent cells stained with secondary antibody only; the curves labelled “2” represent cells stained with A1 or B1 domain antibody.
The VH coding sequences of binders A1 and B1 were fused with His-FLAG tag at their C-termini and cloned into an E. coli expression vector. […] The purified yield was 2 mg/L (A1) and 10 mg/L fermentation (B1) respectively. […]
For orientation: ELISA stands for enzyme-linked immunosorbent assay.

For experiment [2], the target named is PD-L1. The experiment in a line: ELISA, purified VHH, cross-reaction.
Experiment [3] deals with IgG control. The experiment in a line: phage ELISA. The procedure, abridged: (§1)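 For 3 rounds, recombinant B7H3-Fc protein served as the panning target for camel VHH phage drawn from eight individual camels' libraries. Each entry gives the ELISA signal for binding of selected phage to an immobilised antigen, either human or other-species B7H3 or a control protein, measured by phage ELISA.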

Experiment [4] has as its target T2, hB7H3-His (human, UniProt Q5ZPR3 29-461, limits assumed).
T2 construct: not shown: His tag
T2 sequence (looked up): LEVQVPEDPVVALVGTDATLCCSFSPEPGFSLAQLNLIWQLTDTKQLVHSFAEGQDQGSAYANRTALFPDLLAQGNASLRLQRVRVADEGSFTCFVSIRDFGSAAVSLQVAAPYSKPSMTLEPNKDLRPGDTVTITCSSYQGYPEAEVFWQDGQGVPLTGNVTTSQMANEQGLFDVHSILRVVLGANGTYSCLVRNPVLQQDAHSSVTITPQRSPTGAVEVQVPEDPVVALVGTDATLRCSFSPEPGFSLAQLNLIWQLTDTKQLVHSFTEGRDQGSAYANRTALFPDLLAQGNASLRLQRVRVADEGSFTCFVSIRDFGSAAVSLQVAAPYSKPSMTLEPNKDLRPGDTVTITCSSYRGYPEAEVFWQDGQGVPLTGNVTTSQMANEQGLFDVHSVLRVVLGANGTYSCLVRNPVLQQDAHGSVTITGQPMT
The experiment in a line: ELISA, purified VHH. The procedure, abridged: (§2)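 Camel VHH nanobodies were isolated by phage panning on recombinant B7H3-Fc. After purification, their binding to immobilised B7H3 fusion proteins and non-B7H3 recombinant proteins was read out by ELISA and recorded as signal.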

Experiment [5] addresses T3, monkey B7H3-His (monkey).
T3 chain: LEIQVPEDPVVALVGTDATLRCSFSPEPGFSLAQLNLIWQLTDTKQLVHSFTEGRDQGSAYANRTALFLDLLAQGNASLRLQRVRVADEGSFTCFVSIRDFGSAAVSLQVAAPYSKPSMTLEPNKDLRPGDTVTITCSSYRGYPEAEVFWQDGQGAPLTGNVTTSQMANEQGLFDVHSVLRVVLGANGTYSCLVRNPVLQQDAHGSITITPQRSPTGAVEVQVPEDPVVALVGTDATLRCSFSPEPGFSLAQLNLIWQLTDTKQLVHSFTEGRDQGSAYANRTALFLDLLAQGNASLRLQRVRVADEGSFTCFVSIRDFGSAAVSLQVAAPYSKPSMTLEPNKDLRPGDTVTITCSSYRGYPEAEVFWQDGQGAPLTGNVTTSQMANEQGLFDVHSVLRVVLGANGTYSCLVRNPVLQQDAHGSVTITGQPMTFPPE
The experiment in a line: ELISA, purified VHH. The essentials:
as §2

Experiment [6] has as its target T2, hB7H3-His. Kind of experiment: ELISA, purified VHH. The procedure, abridged:
as §2
This is another data set of the same source.

The target of experiment [7] is Non-relevant antigen. Kind of experiment: ELISA, purified VHH. The essentials: as §2
The target in experiment [8] is T4, rat B7H3-His (rat, UniProt Q7TPB4 29-244, limits assumed).
T4 construct: not shown: His tag
T4 sequence (looked up): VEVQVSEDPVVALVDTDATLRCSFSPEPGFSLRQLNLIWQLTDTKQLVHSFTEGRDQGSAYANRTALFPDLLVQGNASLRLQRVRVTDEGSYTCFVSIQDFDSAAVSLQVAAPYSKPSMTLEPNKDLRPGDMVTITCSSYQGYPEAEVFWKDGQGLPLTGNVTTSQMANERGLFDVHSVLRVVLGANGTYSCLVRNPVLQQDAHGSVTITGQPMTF
Kind of experiment: ELISA, purified VHH. The procedure, abridged: as §2

Experiment [9] addresses T5, human B7H3 (human, UniProt Q5ZPR3 29-466, limits assumed).
T5 construct: also called human B7H3 protein
T5 sequence (looked up): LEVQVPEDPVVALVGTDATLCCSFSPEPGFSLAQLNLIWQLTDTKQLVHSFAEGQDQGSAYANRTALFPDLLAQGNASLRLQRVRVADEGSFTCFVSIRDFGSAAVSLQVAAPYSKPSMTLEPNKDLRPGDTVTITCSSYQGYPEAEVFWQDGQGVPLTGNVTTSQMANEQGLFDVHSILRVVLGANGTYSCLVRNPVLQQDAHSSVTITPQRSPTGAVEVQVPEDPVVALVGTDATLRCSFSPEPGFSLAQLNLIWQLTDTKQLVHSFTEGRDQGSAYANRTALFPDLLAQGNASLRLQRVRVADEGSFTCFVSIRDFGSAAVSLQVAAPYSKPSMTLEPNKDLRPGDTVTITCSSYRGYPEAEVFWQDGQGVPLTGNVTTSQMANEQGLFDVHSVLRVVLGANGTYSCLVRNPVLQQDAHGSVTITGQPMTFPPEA
Kind of experiment: phage ELISA, cross-species. The procedure, abridged:
as §1

The target in experiment [10] is T3, monkey B7H3-His. Kind of experiment: phage ELISA, cross-species. The essentials: as §1
The target in experiment [11] is Non-relevant antigen. The experiment in a line: phage ELISA, cross-species. The procedure, abridged:
as §1

Experiment [12] concerns the target T4, rat B7H3-His. Kind of experiment: phage ELISA, cross-species. The essentials:
as §1

For experiment [13], the target named is T6, mouse B7H3-His (mouse, UniProt Q8VE98 29-244, limits assumed).
T6 construct: also called recombinant mouse B7H3-His protein; not shown: His tag
T6 sequence (looked up): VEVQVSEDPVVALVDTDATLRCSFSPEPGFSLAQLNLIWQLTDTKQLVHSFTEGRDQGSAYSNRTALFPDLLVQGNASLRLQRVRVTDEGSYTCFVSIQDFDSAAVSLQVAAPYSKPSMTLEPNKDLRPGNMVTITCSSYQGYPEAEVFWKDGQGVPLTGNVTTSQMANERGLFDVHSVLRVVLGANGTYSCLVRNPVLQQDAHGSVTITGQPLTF
Kind of experiment: phage ELISA, cross-species. The procedure, abridged:
as §1

For orientation: EC50 means the concentration that produces a half-maximal response.

Chain of PD-L1 (Q9NZQ7 whole entry): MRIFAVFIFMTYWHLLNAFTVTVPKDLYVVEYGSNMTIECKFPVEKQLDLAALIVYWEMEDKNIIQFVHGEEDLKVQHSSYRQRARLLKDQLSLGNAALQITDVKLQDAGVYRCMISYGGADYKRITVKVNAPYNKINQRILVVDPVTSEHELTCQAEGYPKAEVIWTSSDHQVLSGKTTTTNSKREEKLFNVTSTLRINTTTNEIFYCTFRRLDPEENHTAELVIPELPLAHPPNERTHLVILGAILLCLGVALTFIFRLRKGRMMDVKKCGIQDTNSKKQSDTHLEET

B1: RFB1 (other)
VH: QEQLKESGGRLVTPGTPLTLTCTVSGFSPNNYGVSWVRQPPGKGLEWIGMSSTAGATYYANWAKGRFTISKTSTTVDLEITSPTTEDTATYFCAKGTPSLSYGNIWGPGTLVTVSSGGGGSGGGGSGGGGSAQGPTQTPGGGGSGTEVVVK
notes: Rabbit VH single-domain antibody expressed in E. coli as VH-His-FLAG fusion; also called rabbit antibody RFB1; R1-B1; not shown: 6x His tag and FLAG tag at the C-terminus
For the molecule B1, in [1], the EC50 was determined as 189 nM.

B2: RFA1 (other)
VH: QSLEESGGGLVTPGGTLTLTCTVSGFSLSSYGMSWVRQAPGKGLEWIGSMANNGDPYYASWAKGRFTISKTSTTVDLKITSPTTEDTATYFCVRAPWGSHSMWGPGTLVTVSSGGGGSGGGGSGGGGSDPVLTQTAGGGTNVEIK
notes: Rabbit VH single-domain antibody expressed in E. coli as VH-His-FLAG fusion; also called rabbit antibody RFA1; Al [sic]; not shown: 6x His tag and FLAG tag at the C-terminus
Molecule B2 displayed an EC50 in [1] of 403 nM.

B3: RWB2 (VHH)
VHH: AVQLVDSGGGSVQAGGSLRLSCVVSGYAFSTYDMAWFRQAPGEKCEWVSTVTNNGRTFYADSVKGRFIISRDNAKNILYLQMNSLKPEDTAVYSCAAAGVRWRCASGGNEGTQVTVSS
notes: Camel VHH; tag not described; also called camel antibody RWB2
B3: the ELISA signal in [2] was 0.0522; in experiment [3], 0.0777; in [5], 0.0799; in [6], 0.152; in experiment [7] it was 0.115; in [8], 0.0986. Further, the ELISA signal in experiment [9] was 2.53; in experiment [10], 0.578; in experiment [11] it was 0.0684; in [12], 0.981; in experiment [13] it was 1.05. Moreover, in [4], the binding result is listed as “no binding”.

The values above are taken from patent US20220380471A1 (US Dept. of Health and Human Services, published 2022).
